In patent publication US5292651 one finds activity (% RFI converted to RFII) and activity data, which are given here for two substances.

The target in series [1] is T1, NaeI restriction endonuclease (recombinant, from pCTnaeIR16-1) T2A (Nocardia aerocolonigenes) (UniProt P50187).
T1 sequence: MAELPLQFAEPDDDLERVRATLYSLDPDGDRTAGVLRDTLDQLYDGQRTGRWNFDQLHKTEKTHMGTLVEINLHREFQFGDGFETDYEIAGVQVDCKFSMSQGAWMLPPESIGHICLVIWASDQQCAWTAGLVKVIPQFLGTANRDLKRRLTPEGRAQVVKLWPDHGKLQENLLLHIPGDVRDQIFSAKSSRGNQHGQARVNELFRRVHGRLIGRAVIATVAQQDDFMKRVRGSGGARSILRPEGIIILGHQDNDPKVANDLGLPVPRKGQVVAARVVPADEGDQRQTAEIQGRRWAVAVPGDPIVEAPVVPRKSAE
The experiment in a line: cleavage_in_vitro. To be noted: 60 U, 4 h, 37 C, 10 mM MgCl2; nonspecific nicking test.

The target of series [2] is T2, NaeI restriction endonuclease (recombinant, crude extract of NEB#777) T2A (Nocardia aerocolonigenes) (UniProt P50187).
T2 sequence: T1 sequence
Briefly: cleavage_in_vitro. To be noted: PstI-codigested pBR322, NEBuffer 1, 37 C, 1 h; after overnight IPTG induction.

For the substance phiX174 RFI DNA, the activity (% RFI converted to RFII) in series [1] was less than 5.

pBR322 plasmid DNA: in series [2], the activity amounted to 77000 U/g cells.
